Measurements taken from patent US20240025984A1 (FLUX THERAPEUTICS, published 2024).

Key:
Test in all cases: cell-based or functional assay
[1] = target: T1, SYNGAP1-nanoluc-alfa-tag-fusion
T1 chain: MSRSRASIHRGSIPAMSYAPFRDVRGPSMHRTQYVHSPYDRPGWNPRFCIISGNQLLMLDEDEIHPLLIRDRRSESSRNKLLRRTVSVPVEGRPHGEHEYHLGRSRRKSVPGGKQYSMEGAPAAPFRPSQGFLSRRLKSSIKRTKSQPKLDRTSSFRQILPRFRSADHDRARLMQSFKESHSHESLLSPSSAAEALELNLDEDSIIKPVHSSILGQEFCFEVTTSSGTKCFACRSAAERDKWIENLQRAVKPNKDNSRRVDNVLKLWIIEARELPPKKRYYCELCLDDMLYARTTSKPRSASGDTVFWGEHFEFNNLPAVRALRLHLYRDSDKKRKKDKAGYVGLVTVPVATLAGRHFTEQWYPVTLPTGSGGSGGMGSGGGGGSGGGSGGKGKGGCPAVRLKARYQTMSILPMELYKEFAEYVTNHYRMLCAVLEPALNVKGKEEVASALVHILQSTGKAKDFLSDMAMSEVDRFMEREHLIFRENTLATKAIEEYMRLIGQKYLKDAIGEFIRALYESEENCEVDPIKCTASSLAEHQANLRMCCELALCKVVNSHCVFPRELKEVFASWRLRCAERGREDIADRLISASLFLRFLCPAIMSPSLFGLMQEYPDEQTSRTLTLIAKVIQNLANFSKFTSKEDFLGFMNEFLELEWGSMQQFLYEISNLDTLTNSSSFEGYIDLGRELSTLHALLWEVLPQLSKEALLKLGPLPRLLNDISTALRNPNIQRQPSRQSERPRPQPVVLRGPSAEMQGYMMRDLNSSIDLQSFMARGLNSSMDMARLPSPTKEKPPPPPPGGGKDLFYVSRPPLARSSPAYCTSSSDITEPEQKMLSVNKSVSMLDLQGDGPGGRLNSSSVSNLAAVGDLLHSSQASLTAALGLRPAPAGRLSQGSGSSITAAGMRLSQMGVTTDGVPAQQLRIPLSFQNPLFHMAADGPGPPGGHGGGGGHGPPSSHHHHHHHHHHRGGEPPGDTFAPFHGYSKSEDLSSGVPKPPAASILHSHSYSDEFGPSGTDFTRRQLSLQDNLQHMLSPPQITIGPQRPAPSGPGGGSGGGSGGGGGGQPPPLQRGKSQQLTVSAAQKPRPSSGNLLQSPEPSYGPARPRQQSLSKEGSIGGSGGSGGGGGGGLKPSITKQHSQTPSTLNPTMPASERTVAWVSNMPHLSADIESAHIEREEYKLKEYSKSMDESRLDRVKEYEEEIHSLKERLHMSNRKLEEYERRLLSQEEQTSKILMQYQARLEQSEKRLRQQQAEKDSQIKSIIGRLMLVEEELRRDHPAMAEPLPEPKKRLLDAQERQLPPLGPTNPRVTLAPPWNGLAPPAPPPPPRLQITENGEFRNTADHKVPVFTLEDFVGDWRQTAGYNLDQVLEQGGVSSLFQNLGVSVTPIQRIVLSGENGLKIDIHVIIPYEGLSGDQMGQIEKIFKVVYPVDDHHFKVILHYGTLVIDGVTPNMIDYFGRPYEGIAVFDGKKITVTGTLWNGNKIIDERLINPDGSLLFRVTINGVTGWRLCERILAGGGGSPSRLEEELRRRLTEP

[2] = target: T2, PYDC2-nanoluc-alfa-tag-fusion
T2 chain: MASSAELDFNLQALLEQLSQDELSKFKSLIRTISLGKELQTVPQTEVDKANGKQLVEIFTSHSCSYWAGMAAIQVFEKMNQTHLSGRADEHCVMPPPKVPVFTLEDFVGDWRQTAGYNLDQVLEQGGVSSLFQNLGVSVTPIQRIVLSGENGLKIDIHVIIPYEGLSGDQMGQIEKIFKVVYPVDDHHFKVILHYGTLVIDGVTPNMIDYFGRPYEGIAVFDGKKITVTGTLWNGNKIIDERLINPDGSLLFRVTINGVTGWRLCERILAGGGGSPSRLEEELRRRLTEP

[3] = target: T3, CSTB-nanoluc-alfa-tag-fusion
T3 chain: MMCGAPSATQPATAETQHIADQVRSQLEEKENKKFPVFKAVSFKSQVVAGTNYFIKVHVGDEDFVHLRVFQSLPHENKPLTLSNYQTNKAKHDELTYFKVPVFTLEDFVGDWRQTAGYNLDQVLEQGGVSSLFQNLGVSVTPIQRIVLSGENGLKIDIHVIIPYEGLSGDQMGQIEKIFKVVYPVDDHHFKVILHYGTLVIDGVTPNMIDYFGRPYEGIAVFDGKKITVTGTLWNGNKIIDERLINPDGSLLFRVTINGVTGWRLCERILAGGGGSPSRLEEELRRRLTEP

[4] = target: T4, PCBD1-nanoluc-alfa-tag-fusion
T4 chain: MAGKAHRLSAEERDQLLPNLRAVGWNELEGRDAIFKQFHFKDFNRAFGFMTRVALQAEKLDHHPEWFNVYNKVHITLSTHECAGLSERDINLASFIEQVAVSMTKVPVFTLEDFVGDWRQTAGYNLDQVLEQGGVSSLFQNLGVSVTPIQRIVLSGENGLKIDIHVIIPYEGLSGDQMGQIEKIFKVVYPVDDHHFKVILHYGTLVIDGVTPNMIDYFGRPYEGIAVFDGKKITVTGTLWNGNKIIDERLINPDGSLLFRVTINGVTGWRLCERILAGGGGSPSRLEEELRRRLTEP

[5] = target: Shank3-nanoluc-alfa-tag-fusion (Homo sapiens (Human), UniProt Q9BYB0 76-1806)

fold increase in SYNGAP1 protein expression relative to the control (NLuc signal normalised to firefly luciferase signal) [1]: 3.1 fold | fold increase in PYDC2 protein expression (NLuc signal normalised to firefly luciferase signal) [2]: 2.64 fold | fold increase in CSTB protein expression (NLuc signal normalised to firefly luciferase signal) [3]: 1.61 fold | fold increase in PCBD1 protein expression (NLuc signal normalised to firefly luciferase signal) [4]: 1.13 fold | fold increase in SHANK3 protein expression relative to the control (NLuc signal normalised to firefly luciferase signal) [5]: 2.4 fold
B1: FireflyLuciferase-P2A-a_alfatag_nano-Cezanne (other)
chain: MEDAKNIKKGPAPFYPLEDGTAGEQLHKAMKRYALVPGTIAFTDAHIEVDITYAEYFEMSVRLAEAMKRYGLNTNHRIVVCSENSLQFFMPVLGALFIGVAVAPANDIYNERELLNSMGISQPTVVFVSKKGLQKILNVQKKLPIIQKIIIMDSKTDYQGFQSMYTFVTSHLPPGFNEYDFVPESFDRDKTIALIMNSSGSTGLPKGVALPHRTACVRFSHARDPIFGNQIIPDTAILSVVPFHHGFGMFTTLGYLICGFRVVLMYRFEEELFLRSLQDYKIQSALLVPTLFSFFAKSTLIDKYDLSNLHEIASGGAPLSKEVGEAVAKRFHLPGIRQGYGLTETTSAILITPEGDDKPGAVGKVVPFFEAKVVDLDTGKTLGVNQRGELCVRGPMIMSGYVNNPEATNALIDKDGWLHSGDIAYWDEDEHFFIVDRLKSLIKYKGYQVAPAELESILLQHPNIFDAGVAGLPDDDAGELPAAVVVLEHGKTMTEKEIVDYVASQVTTAKKLRGGVVFVDEVPKGLTGKLDARKIREILIKAKKGGKIAVTRLKGSGATNFSLLKQAGDVEENPGPRSGTGSSGEVQLQESGGGLVQPGGSLRLSCTASGVTISALNAMAMGWYRQAPGERRVMVAAVSERGNAMYRESVQGRFTVTRDFTNKMVSLQMDNLKPEDTAVYYCHVLEDRVDSFHDYWGQGTQVTVSSGAPGSGPPSFSEGSGGSRTPEKGFSDREPTRPPRPILQRQDDIVQEKRLSRGISHASSSIVSLARSHVSSNGGGGGSNEHPLEMPICAFQLPDLTVYNEDFRSFIERDLIEQSMLVALEQAGRLNWWVSVDPTSQRLLPLATTGDGNCLLHAASLGMWGFHDRDLMLRKALYALMEKGVEKEALKRRWRWQQTQQNKESGLVYTEDEWQKEWNELIKLASSEPRMHLGTNGANCGGVESSEEPVYESLEEFHVFVLAHVLRRPIVVVADTMLRDSGGEAFAPIPFGGIYLPLEVPASQCHRSPLVLAYDQAHFSALVSMEQKENTKEQAVIPLTDSEYKLLPLHFAVDPGKGWEWGKDDSDNVRLASVILSLEVKLHLLHSYMNVKWIPLSSDAQAPLAQ
